According to article PMC10397247:
Like-named read-outs stand apart in the source and are kept apart here.

Experiments:
[1] = biological target: T1, 4H717-AA; test: two-hybrid library CCmax; conditions: mean of both orientations;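 note: natural log of median RNA to DNA barcode read ratio; higher means stronger binding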
T1 chain: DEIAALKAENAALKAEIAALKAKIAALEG

[2] = biological target: T2, 4H3427-AA; test: two-hybrid library CCmax; conditions: mean of both orientations;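 note: natural log of median RNA to DNA barcode read ratio; higher means stronger binding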
T2 chain: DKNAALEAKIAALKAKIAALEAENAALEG

[3] = biological target: T3, 4H993-AA; test: two-hybrid library CCmax; conditions: mean of both orientations;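 note: natural log of median RNA to DNA barcode read ratio; higher means stronger binding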
T3 chain: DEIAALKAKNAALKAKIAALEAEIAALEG

[4] = biological target: T4, 4H678-AA; test: two-hybrid library CCmax; conditions: mean of both orientations;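 note: natural log of median RNA to DNA barcode read ratio; higher means stronger binding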
T4 chain: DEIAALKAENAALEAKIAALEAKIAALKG

[5] = biological target: T5, 4H3844-AA; test: two-hybrid library CCmax; conditions: mean of both orientations;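 note: natural log of median RNA to DNA barcode read ratio; higher means stronger binding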
T5 chain: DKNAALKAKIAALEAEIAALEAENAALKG

[6] = biological target: T6, 4H3655-AA; test: two-hybrid library CCmax; conditions: mean of both orientations;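 note: natural log of median RNA to DNA barcode read ratio; higher means stronger binding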
T6 chain: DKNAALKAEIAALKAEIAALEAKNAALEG

[7] = biological target: T7, 4H48-AA; test: two-hybrid library CCmax; conditions: mean of both orientations
T7 chain: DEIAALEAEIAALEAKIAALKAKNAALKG

[8] = biological target: T8, 4H3343-AA; test: two-hybrid library CCmax; conditions: mean of both orientations
T8 chain: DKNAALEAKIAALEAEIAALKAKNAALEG

[9] = biological target: T9, 4H2754-AA; test: two-hybrid library CCmax; conditions: mean of both orientations
T9 chain: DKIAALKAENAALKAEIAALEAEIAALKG

[10] = biological target: T10, 4H881-AA; test: two-hybrid library CCmax; conditions: mean of both orientations
T10 chain: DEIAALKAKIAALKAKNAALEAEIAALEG

[11] = biological target: T11, N5-AA; test: two-hybrid library CCmax; conditions: mean of both orientations
T11 chain: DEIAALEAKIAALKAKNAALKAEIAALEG

[12] = biological target: T12, 4H3627-AA; test: two-hybrid library CCmax; conditions: mean of both orientations
T12 chain: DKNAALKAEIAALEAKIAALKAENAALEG

[13] = biological target: T13, 4H780-AA; test: two-hybrid library CCmax; conditions: mean of both orientations
T13 chain: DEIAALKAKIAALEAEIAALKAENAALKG

[14] = biological target: T14, 4H2883-AA; test: two-hybrid library CCmax
T14 chain: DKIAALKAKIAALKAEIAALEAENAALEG

[15] = biological target: T15, 4H3606-AA; test: two-hybrid library CCmax; conditions: mean of both orientations
T15 chain: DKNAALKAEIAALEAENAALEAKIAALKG

[16] = biological target: T16, 4H454-AA; test: two-hybrid library CCmax; conditions: mean of both orientations
T16 chain: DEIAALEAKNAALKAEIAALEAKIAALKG

[17] = biological target: T17, 4H2837-AA; test: two-hybrid library CCmax; conditions: mean of both orientations
T17 chain: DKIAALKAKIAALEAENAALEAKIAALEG

[18] = biological target: T18, 4H605-AA; test: two-hybrid library CCmax; conditions: mean of both orientations
T18 chain: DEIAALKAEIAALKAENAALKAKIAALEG

[19] = biological target: T19, 4H429-AA; test: two-hybrid library CCmax; conditions: mean of both orientations
T19 chain: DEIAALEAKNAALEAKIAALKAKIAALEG

[20] = biological target: T20, 4H317-AA; test: two-hybrid library CCmax; conditions: mean of both orientations
T20 chain: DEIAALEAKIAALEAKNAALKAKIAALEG

[21] = biological target: T21, 4H2944-AA; test: two-hybrid library CCmax; conditions: mean of both orientations
T21 chain: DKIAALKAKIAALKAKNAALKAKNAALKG

[22] = biological target: T22, 4H794-AA; test: two-hybrid library CCmax; conditions: mean of both orientations
T22 chain: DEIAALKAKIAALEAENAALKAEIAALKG

[23] = biological target: T23, 4H906-AA; test: two-hybrid library CCmax; conditions: mean of both orientations
T23 chain: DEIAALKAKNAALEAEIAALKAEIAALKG

[24] = biological target: T24, 4H2949-AA; test: two-hybrid library CCmax; conditions: mean of both orientations
T24 chain: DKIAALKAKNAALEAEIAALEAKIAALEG

[25] = biological target: T25, 4H335-AA; test: two-hybrid library CCmax; conditions: mean of both orientations
T25 chain: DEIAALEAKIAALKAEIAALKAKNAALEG

[26] = biological target: T26, 4H2729-AA; test: two-hybrid library CCmax
T26 chain: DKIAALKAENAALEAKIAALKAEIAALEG

[27] = biological target: T27, 4H566-AA; test: two-hybrid library CCmax; conditions: mean of both orientations
T27 chain: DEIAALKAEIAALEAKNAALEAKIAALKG

[28] = biological target: T28, 4H342-AA; test: two-hybrid library CCmax; conditions: mean of both orientations
T28 chain: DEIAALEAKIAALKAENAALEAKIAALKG

[29] = biological target: T29, 4H3112-AA; test: two-hybrid library CCmax; conditions: mean of both orientations
T29 chain: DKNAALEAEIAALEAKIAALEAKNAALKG

[30] = biological target: T30, N6-AA; test: two-hybrid library CCmax; conditions: mean of both orientations
T30 chain: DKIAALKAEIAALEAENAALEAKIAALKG

[31] = biological target: T31, 4H3921-AA; test: two-hybrid library CCmax; conditions: mean of both orientations
T31 chain: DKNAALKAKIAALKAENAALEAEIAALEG

[32] = biological target: T32, 4H3631-bH; test: two-hybrid library CCNG1
T32 chain: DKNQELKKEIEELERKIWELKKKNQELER

[33] = biological target: T33, 4H1899-bH; test: two-hybrid library CCNG1
T33 chain: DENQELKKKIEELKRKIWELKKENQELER

[34] = biological target: T34, 4H570-bH; test: two-hybrid library CCNG1
T34 chain: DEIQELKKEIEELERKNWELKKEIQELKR

[35] = biological target: T35, 4H1804-bH; test: two-hybrid library CCNG1
T35 chain: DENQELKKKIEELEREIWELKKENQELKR

[36] = biological target: T36, 4H3638-bH; test: two-hybrid library CCNG1
T36 chain: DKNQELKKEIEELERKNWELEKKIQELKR

[37] = biological target: T37, 4H3858-bH; test: two-hybrid library CCNG1
T37 chain: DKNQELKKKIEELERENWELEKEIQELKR

[38] = biological target: T38, 4H1985-bH; test: two-hybrid library CCNG1
T38 chain: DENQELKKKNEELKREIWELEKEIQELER

[39] = biological target: T39, 4H1710-bH; test: two-hybrid library CCNG1
T39 chain: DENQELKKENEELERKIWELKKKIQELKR

[40] = biological target: T40, 4H3129-bH; test: two-hybrid library CCNG1
T40 chain: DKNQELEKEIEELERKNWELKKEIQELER

[41] = biological target: T41, 4H3817-bH; test: two-hybrid library CCNG1
T41 chain: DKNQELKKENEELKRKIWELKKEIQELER

[42] = biological target: T42, 4H619-bH; test: two-hybrid library CCNG1
T42 chain: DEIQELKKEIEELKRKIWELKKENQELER

[43] = biological target: T43, 4H906-bH; test: two-hybrid library CCNG1
T43 chain: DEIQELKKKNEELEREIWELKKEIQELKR

[44] = biological target: T44, 4H1629-bH; test: two-hybrid library CCNG1
T44 chain: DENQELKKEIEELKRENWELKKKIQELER

[45] = biological target: T45, 4H3172-bH; test: two-hybrid library CCNG1
T45 chain: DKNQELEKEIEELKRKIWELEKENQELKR

[46] = biological target: T46, 4H3628-bH; test: two-hybrid library CCNG1
T46 chain: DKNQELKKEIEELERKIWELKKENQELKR

[47] = biological target: T47, 4H1544-bH; test: two-hybrid library CCNG1
T47 chain: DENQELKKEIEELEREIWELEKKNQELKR

[48] = biological target: T48, 4H3414-bH; test: two-hybrid library CCNG1
T48 chain: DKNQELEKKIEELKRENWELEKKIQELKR

[49] = biological target: T49, 4H1449-bH; test: two-hybrid library CCNG1
T49 chain: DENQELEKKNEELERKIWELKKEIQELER

[50] = biological target: T50, 4H3974-bH; test: two-hybrid library CCNG1
T50 chain: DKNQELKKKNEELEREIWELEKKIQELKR

[51] = biological target: T51, 4H584-bH; test: two-hybrid library CCNG1
T51 chain: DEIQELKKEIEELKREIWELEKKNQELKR

[52] = biological target: T52, 4H3592-bA; test: two-hybrid library CCNG1
T52 chain: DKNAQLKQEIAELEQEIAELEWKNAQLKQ

[53] = biological target: T53, 4H850-bH; test: two-hybrid library CCNG1
T53 chain: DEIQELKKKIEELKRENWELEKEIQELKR

[54] = biological target: T54, 4H3613-bH; test: two-hybrid library CCNG1
T54 chain: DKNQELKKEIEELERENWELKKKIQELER

Q: How did the interaction score [1] turn out when DKIAALKAENAALEAKIAALKAEIAALEG [4H2729-AA] was run?
A: 1.12

Q: What about the interaction score [2] of the same binder?
A: -1.33

Q: And the interaction score [3]?
A: 1.96

Q: What about the interaction score [4] of the same binder?
A: 1.97

Q: What about the interaction score [5] of the same binder?
A: -1.03

Q: And the interaction score [6]?
A: -0.901

Q: And the interaction score [7]?
A: -0.497

Q: And the interaction score [8]?
A: -1.17

Q: What about the interaction score [9] of the same binder?
A: 2.26

Q: What about the interaction score [10] of the same binder?
A: -0.0189

Q: And the interaction score [11]?
A: 0.643

Q: And the interaction score [12]?
A: 1.22

Q: What about the interaction score [13] of the same binder?
A: -1.31

Q: What about the interaction score ([14]; mean of both orientations) of the same binder?
A: -1.1

Q: And the interaction score [15]?
A: -0.747

Q: And the interaction score [16]?
A: 1.94

Q: And the interaction score [17]?
A: 0.924

Q: What about the interaction score [18] of the same binder?
A: -1.37

Q: And the interaction score [19]?
A: 1.68

Q: What about the interaction score [20] of the same binder?
A: 1.37

Q: What about the interaction score [21] of the same binder?
A: -1.66

Q: What about the interaction score [22] of the same binder?
A: -1.09

Q: What about the interaction score [23] of the same binder?
A: 1.15

Q: And the interaction score [24]?
A: 1.85

Q: What about the interaction score [25] of the same binder?
A: -0.622

Q: And the interaction score [26]?
A: 1.46

Q: What about the interaction score [27] of the same binder?
A: 0.192

Q: And the interaction score [28]?
A: 2.18

Q: What about the interaction score [29] of the same binder?
A: -0.662

Q: And the interaction score [30]?
A: 1.56

Q: And the interaction score [31]?
A: -1.21

Q: DENQELEKKNEELERKIWELKKEIQELER [4H1449-bH] was tested. Which interaction score [32] did it give?
A: 0.733

Q: What about the interaction score [33] of the same binder?
A: -0.126

Q: And the interaction score [34]?
A: -0.108

Q: What about the interaction score [35] of the same binder?
A: -0.461

Q: What about the interaction score [36] of the same binder?
A: -0.0745

Q: What about the interaction score [37] of the same binder?
A: -0.658

Q: What about the interaction score [38] of the same binder?
A: -0.843

Q: What about the interaction score [39] of the same binder?
A: -0.366

Q: What about the interaction score [40] of the same binder?
A: -0.319

Q: And the interaction score [41]?
A: -0.644

Q: What about the interaction score [42] of the same binder?
A: -2.2

Q: What about the interaction score [43] of the same binder?
A: -1.2

Q: And the interaction score [44]?
A: -0.891

Q: And the interaction score [45]?
A: -0.0351

Q: And the interaction score [46]?
A: -0.479

Q: What about the interaction score [47] of the same binder?
A: -0.787

Q: What about the interaction score [48] of the same binder?
A: -0.216

Q: What about the interaction score [49] of the same binder?
A: -1.25

Q: And the interaction score [50]?
A: 1.15

Q: What about the interaction score [51] of the same binder?
A: -0.0853

Q: And the interaction score [52]?
A: -0.126

Q: What about the interaction score [53] of the same binder?
A: -0.674

Q: What about the interaction score [54] of the same binder?
A: -0.131

Q: Which results are given for DKIAALKAKIAALKAEIAALEAENAALEG [4H2883-AA]?
A: interaction score [1]: -1.74; interaction score [2]: -0.335; interaction score [3]: -0.35; interaction score [4]: 0.155; interaction score [5]: 0.741; interaction score [6]: 0.159; interaction score [7]: 2.1; interaction score [8]: -0.771; interaction score [10]: -0.297; interaction score [11]: 0.696; interaction score [12]: -0.102; interaction score [14]: 1.92; interaction score [15]: 0.716; interaction score [16]: -0.344; interaction score [18]: -1.31; interaction score [19]: -0.571; interaction score [20]: -0.269; interaction score [21]: 0.034; interaction score [22]: -1.54; interaction score [23]: -1.52; interaction score [24]: 0.237; interaction score [27]: 0.102; interaction score [28]: -0.29; interaction score [29]: 1.39; interaction score [30]: 1.03
